Source: publication PMC9510110, “Assignment of IVL-Methyl side chain of the ligand-free monomeric human MALT1 paracaspase-IgL3 domain in solution” (Biomolecular Nmr Assignments, 2022)

Molecular target: the molecule itself
Experiment: anion-exchange chromatography (Q-Sepharose HP); purification step after Ni2+ Sepharose; monomer and dimer forms separated on the column; followed by SEC on Superdex 200 in 20 mM HEPES 7.4, 50 mM NaCl, 1 mM DTT

B1: human MALT1(Casp-IgL3)338–719 (domain or fragment, UniProt Q9UDY8 338-719, looked up)
chain: PLAKDKVALLIGNMNYREHPKLKAPLVDVYELTNLLRQLDFKVVSLLDLTEYEMRNAVDEFLLLLDKGVYGLLYYAGHGYENFGNSFMVPVDAPNPYRSENCLCVQNILKLMQEKETGLNVFLLDMCRKRNDYDDTIPILDALKVTANIVFGYATCQGAEAFEIQHSGLANGIFMKFLKDRLLEDKKITVLLDEVAEDMGKCHLTKGKQALEIRSSLSEKRALTDPIQGTEYSAESLVRNLQWAKAHELPESMCLKFDCGVQIQLGFAAEFSNVMIIYTSIVYKPPEIIMCDAYVTDFPLDLDIDPKDANKGTPEETGSYLVSKDLPKHCLYTRLSSLQKLKEHLVFTVCLSYQYSGLEDTVEDKQEVNVGKPLIAKLDMHR
notes: Expressed with isotope labels (2H, 15N, 13C; Ile/Val/Leu methyl labelling) in M9 medium; also called MALT1 paracaspase-IgL3 domain; source: E. coli T7 express, pET21b, purified (Ni2+ Sepharose, Q-Sepharose HP, SEC Superdex 200); not shown: His6, C-terminal, kept
Q: Does B1 bind?
A: binds
